In patent US20250092424A1 (University of Washington, published 2025):

Target: T1, design #8 (v-SNARE-like protein, v-SP; MPNN-redesigned VAMP2), SEQ ID NO: 8
T1 chain: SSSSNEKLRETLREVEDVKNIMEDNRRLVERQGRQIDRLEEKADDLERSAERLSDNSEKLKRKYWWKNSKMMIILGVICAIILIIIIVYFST
Assay: cell-based or functional assay

B1: design #94 (single-chain t-SNARE-like protein, sc-t-SP), SEQ ID NO: 94 (designed binder)
chain: SEREKEIDEGLDRVSEIVKELKKMAEEMRRMIEEQGRRIERIEEKAEEAKEKIEEANERAEKLLKDPGGSGGSEELKKLEKEGEKLKELVEELDREIKELKEGMERLREMFEEAAKLSEEALEIMRRTRKLSEEELEEAKQKAKEQEKEKALKEKGGSGGSGGSEKVKRELAQIEERHQQILELEEKIKELLEMFKELSEKIEEQGQKIDRIEDKVSKAKEHVEKGVEDTKKAVKYQSKARRKKIMIIICCVILGIVIASTVGGIFA
In the case of B1, the “cell-cell fusion assay (reporter luciferase), fold over parental SNARE complex” value is reported as 10 fold.
